Assay results as given in the supplement of paper PMC10567573.
± gives the standard deviation.

Test: protein stability index of a GFP-peptide fusion (GPS, HEK-293T) (PSI 1-6); higher = more stable
[1] = treatment: DMSO, c terminus: native
[2] = treatment: MLN4924 1 uM, 8 h, c terminus: native
[3] = treatment: DMSO, c terminus: a fixed tail appended
[4] = treatment: MLN4924 1 uM, 8 h, c terminus: a fixed tail appended
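Also: 24-mer peptide tiles fused after GFP, lentivirally expressed, FACS-sorted into six equal bins by GFP/DsRed ratio, decoded by Illumina sequencing, PSI is the read-weighted mean bin number.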

With VFGRGDNISDVSKFLEDDKWMEE [LUC7L3] the protein stability index [1] was 2.4 ± 0.54 and the protein stability index [2] was 3.38 ± 0.96.
ELIGDYSKAFLLQTVDGKHQDLKY [CDC25B] showed a protein stability index [3] of 2.41 ± 0.18 and a protein stability index [4] of 2.51 ± 0.29.
Sequence GVEIDEINVYGNTALHIACYNGQD [ANKRD44] has a protein stability index [3] of 3.58 ± 0.19 and a protein stability index [4] of 3.55 ± 0.33.
Sequence IRSFGHFIARLQGSILQFNPEVGI [SMG5] has a protein stability index [3] of 2.45 ± 0.27 and a protein stability index [4] of 2.35 ± 0.25.
Sequence MWRDLTDEEKQEYLNEYEAEKIEY [SMARCE1] has a protein stability index [3] of 4.26 ± 0.4 and a protein stability index [4] of 4.35 ± 0.21.
With KARSYSYPHCTGISQQDPESDSQG [ZC2HC1C] the protein stability index [3] was 5.28 ± 0.28 and the protein stability index [4] was 5.25 ± 0.076.
PPSEPVPSLEDISCNTWPSMPSYS [TBX5] gave a protein stability index [3] of 4.269 ± 0.038 and a protein stability index [4] of 4.38 ± 0.19.
QAPGQPPGNQAEHGAVTVGGTSVG [ZBTB22] showed a protein stability index [3] of 4.9 ± 0.43 and a protein stability index [4] of 5.17 ± 0.21.
Work on ACDELFSYLIEKVKRKKNVLRLCC [PRAME] yielded a protein stability index [3] of 2.99 ± 0.43 and a protein stability index [4] of 2.7 ± 0.61.
PYTPSPSSSRPISPGLSYASHTVG [CCDC6] gave a protein stability index [3] of 3.84 ± 0.17 and a protein stability index [4] of 3.69 ± 0.19.
Work on ERLASANLRVLVDCILRDTSEDLR [TEKT4] yielded a protein stability index [3] of 2.21 ± 0.48 and a protein stability index [4] of 2.05 ± 0.15.
In the case of CQGVSEAAHRLARRLYHLEGFQRC [PSD2], the protein stability index [3] is reported as 2.41 ± 0.21 and the protein stability index [4] is reported as 2.54 ± 0.17.
GSGADSEPARHIFSFSWLNSLNE [TRIM55] gave a protein stability index [1] of 3.53 ± 0.41 and a protein stability index [2] of 3.53 ± 0.26.
With FGNSEKPETMTCRLSNNQRYLFLD [ZFYVE21] the protein stability index [3] was 2.44 ± 0.42 and the protein stability index [4] was 2.1 ± 0.54.
For LVETNRREVEQWFATQTEELNKQV [KRT33B], the protein stability index [3] was 4.41 ± 0.21 and the protein stability index [4] was 4.49 ± 0.31.
Sequence LYNMDLSDDHIRVIVQLHKLRHLD [ZER1] has a protein stability index [3] of 2.25 ± 0.38 and a protein stability index [4] of 2.56 ± 0.37.
Work on RMAAPRAEALFDFTGNSKLELNFK [NCF4] yielded a protein stability index [3] of 3.33 ± 0.2 and a protein stability index [4] of 3.46 ± 0.28.
For TEQALRLSVEADINGLRRVLDELT [KRT17], the protein stability index [3] was 3.07 ± 0.2 and the protein stability index [4] was 3.18 ± 0.25.
For LKIELETYKLKCKALQEENRDLRK [CCDC6], the protein stability index [3] was 4.25 ± 0.29 and the protein stability index [4] was 4.63 ± 0.23.
